In article PMC4355418:

Key:
Assay in all cases: peptide binding assay on Ni2+ coated plate (absorbance at 405 nm)
[1] = target: T1, CRK1 hC peptide (helix-C region of the CRK1 kinase domain); settings: chain shown with the change; protein immobilized on a Ni2+ coated plate; triplicate; SUMO control absorbance subtracted; parent: est. 0.39; read off a plot
T1 chain: HRRADKDSAFVNELES

[2] = target: T2, JMD1 peptide of the ACR4 juxtamembrane domain; settings: chain shown with the change; protein immobilized on a Ni2+ coated plate; triplicate; SUMO control absorbance subtracted; parent: est. 0.14; read off a plot
T2 chain: DTRSSKDSAFTKDNG

[3] = target: T3, pJMD1 peptide (JMD1 with phosphorylated Ser475); settings: chain shown with the change; protein immobilized on a Ni2+ coated plate; triplicate; SUMO control absorbance subtracted; parent: est. 0.29; read off a plot
T3 chain: DTRSSKDSAFTKDNG

response [1]: 0.3 A405
response [2]: 0.042 A405
response [3]: 0.17 A405
B1: SUMO-tagged ACR4 KC (sACR4 KC), ACR4 intracellular domain lacking the JMD, Q9LX29 LLSLL motif replaced with AAAAA (residue numbers not printed) (protein)
chain: FKEESIVGKGSFSCVYKGVLRDGTTVAVKRAIMSSDKQKNSNEFRTELDLLSRLNHAHAAAAAGYCEECGERLLVYEFMAHGSLHNHLHGKNKALKEQLDWVKRVTIAVQAARGIEYLHGYACPPVIHRDIKSSNILIDEEHNARVADFGLSLLGPVDSGSPLAELPAGTLGYLDPEYYRLHYLTTKSDVYSFGVLLLEILSGRKAIDMHYEEGNIVEWAVPLIKAGDINALLDPVLKHPSEIEALKRIVSVACKCVRMRGKDRPSMDKVTTALERALAQLMGNPSSEQPILPTEVVLGSSRMHKKSWRIGSKRSGSENTEFRGGSWITFPSVTSSQRRKSSASEGDVAEEEDEGRKQQEALRSLEEEIGPASPGQSLFLHHNF
